*1 amine or outer side, *2 acyl side, *3 side chain or, on linkers, in order; H or OH if unused. Primed or numbered codes have the meaning given here. Side-chain parts run from the residue outwards. [ ]: non-standard residue; d: D form. The star is where a group is joined. PEG28′ = polyethylene glycol spacer with 28 ethoxy units (aminoethoxy-ethoxy chain); PEG24′ = polyethylene glycol spacer of 24 ethoxy units; PEG12 = NCCOCCOCCOCCOCCOCCOCCOCCOCCOCCOCCOCCOCCC(=O)O; γGlu = O=C(O)[C@H](CCC(=O)[*:2])N[*:1]; 1Nal = N[C@@H](Cc1cccc2ccccc12)C(=O)O; Stearoyl = CCCCCCCCCCCCCCCCCC(=O)*; Palmitoyl = CCCCCCCCCCCCCCCC(=O)*; αMeK = C[C@](N)(CCCCN)C(=O)O; Nle = CCCC[C@H](N)C(=O)O; PEG2′ = PEG2 spacer unit; Aib = CC(C)(N)C(=O)O
T1: RXFP1 receptor (UniProt Q9HBX9 1-757, limits assumed)
T1 sequence (looked up): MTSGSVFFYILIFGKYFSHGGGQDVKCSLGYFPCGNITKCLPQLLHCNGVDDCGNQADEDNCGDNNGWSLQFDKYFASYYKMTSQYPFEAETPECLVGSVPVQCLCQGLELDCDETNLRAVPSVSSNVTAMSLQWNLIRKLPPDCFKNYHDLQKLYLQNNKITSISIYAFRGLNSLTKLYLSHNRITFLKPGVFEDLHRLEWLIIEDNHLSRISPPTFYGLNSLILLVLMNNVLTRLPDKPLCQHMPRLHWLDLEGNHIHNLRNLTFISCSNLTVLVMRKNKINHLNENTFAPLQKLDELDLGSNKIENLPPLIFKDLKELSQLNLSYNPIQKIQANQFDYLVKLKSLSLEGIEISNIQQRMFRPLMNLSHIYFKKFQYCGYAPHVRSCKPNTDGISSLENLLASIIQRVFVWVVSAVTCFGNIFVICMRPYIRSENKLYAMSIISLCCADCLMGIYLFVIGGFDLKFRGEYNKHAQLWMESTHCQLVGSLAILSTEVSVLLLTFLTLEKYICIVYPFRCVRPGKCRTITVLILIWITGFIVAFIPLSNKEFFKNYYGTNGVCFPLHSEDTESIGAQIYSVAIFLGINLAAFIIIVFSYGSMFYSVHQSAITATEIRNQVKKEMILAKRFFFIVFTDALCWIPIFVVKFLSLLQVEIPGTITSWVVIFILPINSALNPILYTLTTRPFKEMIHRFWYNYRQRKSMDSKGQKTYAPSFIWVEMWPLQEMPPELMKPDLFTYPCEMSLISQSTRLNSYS

B1: B7-33 C11.23S (peptide)
peptide: H-VIKLSGRELVRAQIAISGMSTWSKRSL-NH2
B2: AcB7-33 C11.23S (peptide)
peptide: Ac-VIKLSGRELVRAQIAISGMSTWSKRSL-NH2
B3: KKKK(AcB7-29 C11.23S) (peptide)
peptide: Ac-VIKLSGRELVRAQIAISGMSTWSKKKK-NH2
B4: peptide of SEQ ID NO: 42 (peptide)
peptide: Ac-LEGREKVRAK(Ac)I[Aib][Aib]EG[Nle]STWS[αMeK]RKK(Ac)[PEG12]K([γGlu-γGlu-γGlu-γGlu-Stearoyl])-NH2
SMILES: CCCCCCCCCCCCCCCCCC(=O)N[C@@H](CCC(=O)N[C@@H](CCC(=O)N[C@@H](CCC(=O)N[C@@H](CCC(=O)NCCCC[C@H](NC(=O)CCOCCOCCOCCOCCOCCOCCOCCOCCOCCOCCOCCOCCNC(=O)[C@H](CCCCNC(C)=O)NC(=O)[C@H](CCCCN)NC(=O)[C@H](CCCNC(=N)N)NC(=O)[C@](C)(CCCCN)NC(=O)[C@H](CO)NC(=O)[C@H](Cc1c[nH]c2ccccc12)NC(=O)[C@@H](NC(=O)[C@H](CO)NC(=O)[C@H](CCCC)NC(=O)CNC(=O)[C@H](CCC(=O)O)NC(=O)C(C)(C)NC(=O)C(C)(C)NC(=O)[C@@H](NC(=O)[C@H](CCCCNC(C)=O)NC(=O)[C@H](C)NC(=O)[C@H](CCCNC(=N)N)NC(=O)[C@@H](NC(=O)[C@H](CCCCN)NC(=O)[C@H](CCC(=O)O)NC(=O)[C@H](CCCNC(=N)N)NC(=O)CNC(=O)[C@H](CCC(=O)O)NC(=O)[C@H](CC(C)C)NC(C)=O)C(C)C)[C@@H](C)CC)[C@@H](C)O)C(N)=O)C(=O)O)C(=O)O)C(=O)O)C(=O)O
B5: peptide of SEQ ID NO: 43 (peptide)
peptide: Ac-LEGREKVRAK(Ac)I[Aib][Aib]EG[Nle]STWS[αMeK]RKK(Ac)[PEG12]K([γGlu-γGlu-γGlu-γGlu-Palmitoyl])-NH2
B6: peptide of SEQ ID NO: 44 (peptide)
peptide: Ac-LEGREKVRAK(Ac)I[Aib][Aib]EGQSTYS[Aib]RKK(Ac)K([PEG2′-PEG2′-PEG2′-γGlu-γGlu-γGlu-Palmitoyl])-NH2
B7: peptide of SEQ ID NO: 45 (peptide)
peptide: Ac-LEGREKVRAK(Ac)I[Aib][Aib]EG[Nle]ST[1Nal]S[Aib]RK[PEG12]K([γGlu-γGlu-γGlu-Stearoyl])-NH2
SMILES: CCCCCCCCCCCCCCCCCC(=O)N[C@@H](CCC(=O)N[C@@H](CCC(=O)N[C@@H](CCC(=O)NCCCC[C@H](NC(=O)CCOCCOCCOCCOCCOCCOCCOCCOCCOCCOCCOCCOCCNC(=O)[C@H](CCCCN)NC(=O)[C@H](CCCNC(=N)N)NC(=O)C(C)(C)NC(=O)[C@H](CO)NC(=O)[C@H](Cc1cccc2ccccc12)NC(=O)[C@@H](NC(=O)[C@H](CO)NC(=O)[C@H](CCCC)NC(=O)CNC(=O)[C@H](CCC(=O)O)NC(=O)C(C)(C)NC(=O)C(C)(C)NC(=O)[C@@H](NC(=O)[C@H](CCCCNC(C)=O)NC(=O)[C@H](C)NC(=O)[C@H](CCCNC(=N)N)NC(=O)[C@@H](NC(=O)[C@H](CCCCN)NC(=O)[C@H](CCC(=O)O)NC(=O)[C@H](CCCNC(=N)N)NC(=O)CNC(=O)[C@H](CCC(=O)O)NC(=O)[C@H](CC(C)C)NC(C)=O)C(C)C)[C@@H](C)CC)[C@@H](C)O)C(N)=O)C(=O)O)C(=O)O)C(=O)O
B8: peptide of SEQ ID NO: 46 (peptide)
peptide: Ac-LEGREKVRAK(Ac)I[Aib][Aib]EG[Nle]STYS[Aib]RKK(Ac)[PEG12]K([γGlu-γGlu-γGlu-Stearoyl])-NH2
SMILES: CCCCCCCCCCCCCCCCCC(=O)N[C@@H](CCC(=O)N[C@@H](CCC(=O)N[C@@H](CCC(=O)NCCCC[C@H](NC(=O)CCOCCOCCOCCOCCOCCOCCOCCOCCOCCOCCOCCOCCNC(=O)[C@H](CCCCNC(C)=O)NC(=O)[C@H](CCCCN)NC(=O)[C@H](CCCNC(=N)N)NC(=O)C(C)(C)NC(=O)[C@H](CO)NC(=O)[C@H](Cc1ccc(O)cc1)NC(=O)[C@@H](NC(=O)[C@H](CO)NC(=O)[C@H](CCCC)NC(=O)CNC(=O)[C@H](CCC(=O)O)NC(=O)C(C)(C)NC(=O)C(C)(C)NC(=O)[C@@H](NC(=O)[C@H](CCCCNC(C)=O)NC(=O)[C@H](C)NC(=O)[C@H](CCCNC(=N)N)NC(=O)[C@@H](NC(=O)[C@H](CCCCN)NC(=O)[C@H](CCC(=O)O)NC(=O)[C@H](CCCNC(=N)N)NC(=O)CNC(=O)[C@H](CCC(=O)O)NC(=O)[C@H](CC(C)C)NC(C)=O)C(C)C)[C@@H](C)CC)[C@@H](C)O)C(N)=O)C(=O)O)C(=O)O)C(=O)O
B9: peptide of SEQ ID NO: 47 (peptide)
peptide: Ac-LEGREKVRAQI[Aib][Aib]EGMSTWS[Aib]RK[PEG24′]K([γGlu-γGlu-γGlu-Palmitoyl])-NH2
B10: peptide of SEQ ID NO: 48 (peptide)
peptide: Ac-LEGREKVRAK(Ac)I[Aib][Aib]EG[Nle]STWS[Aib]RKK[PEG28′]K([γGlu-γGlu-γGlu-Stearoyl])-NH2
B11: peptide of SEQ ID NO: 49 (peptide)
peptide: Ac-LEGREKVRAK(Ac)I[Aib][Aib]EG[Nle]STWS[Aib]RKK(Ac)[PEG28′]K([γGlu-γGlu-γGlu-Stearoyl])-NH2

Assays:
RXFP1 receptor [1] = molecular target: T1, RXFP1 receptor; assay: cell-based or functional assay
RXFP1 receptor [2] = molecular target: T1, RXFP1 receptor; assay: cell-based or functional assay; remark: listed apart in the source

| Binder | EC50 (nM), cAMP assay in OVCAR 5 cells (RXFP1 receptor [1]) | Emax, cAMP assay in OVCAR 5 cells (RXFP1 receptor [1]) | EC50 (nM), OVCAR 5 cells (cAMP) (RXFP1 receptor [2]) | EMax, OVCAR 5 cells (cAMP) (RXFP1 receptor [2]) |
| --- | --- | --- | --- | --- |
| B1 | 1640 nM | 90% | – | – |
| B2 | 929 nM | 70% | – | – |
| B3 | 206 nM | 84% | – | – |
| B4 | – | – | 0.01 nM | 91% |
| B5 | – | – | 0.14 nM | 106% |
| B6 | – | – | 16.1 nM | 75% |
| B7 | – | – | 0.81 nM | 79% |
| B8 | – | – | 0.61 nM | 79% |
| B9 | – | – | 2.56 nM | 100% |
| B10 | – | – | 0.25 nM | 99% |
| B11 | – | – | 1.65 nM | 106% |

Reference: patent US20190233493A1 (Sanofi, published 2019)
